B1: mouse anti-canine PD-L1 monoclonal antibody 4F9 (antibody, V domains shown)
VH: EVQLVESGGGLVKPGGSLKLSCAASGFTFSSYAMSWVRQTPDKRLEWVATISDGGSYTHYPDNLMGRFTISRDNAKNNLYLQMSHLKSDDTAMYYCARESYDGYYVANWGQGTLVTVSA
VL: DIVLTQSPATLSVNPGDSVSLSCRASQSISNNLHWYQQKSHESPRLLIKYASQSISGIPSRFSGSGSGTDFTLSINSVETEDFGMYFCQQSNSWPQTFGGGTKLEIK
notes: also called mAb 4F9
B2: mouse anti-canine PD-L1 monoclonal antibody 5F12 (antibody, V domains shown)
VH: QVQLQQSGPELVKPGASVKISCKASGYTFTDYYMNWVKQRPGQGLEWIGWIFPGSGATYYNERFMGKATLTVDKSSNTAYMLFSSLTSEDSAVYFCLRSDWDVGDFWGQGTTLTVSS
VL: DIVMTQAAFSNPVTLGTSASISCRSSRSLLHTNGITYLSWFLQKPGQSPQLLIYQMSNLASGVPDRFSSSGSGTDFTLRISRVEAEDVGIYYCAQTLGLPRTFGGGTKLEIK
notes: also called mAb 5F12; Anti-PDL-1 5F12

Assays:
[1] = molecular target: T1, canine PD-L1 extracellular domain-human IgG1 Fc fusion protein (canine); test: cell-based ELISA (CELISA): mAb pre-incubated with cPD-L1-hFc, then added to CHO cells expressing canine PD-1; bound cPD-L1-hFc detected with anti-human Fc-HRP, OD 450-620 nm; blocked partner: canine PD-1
T1 construct: Expressed in HEK 293 cells and purified on Protein A; also called canine PD-L1-hFc fusion protein; cPD-L1-hFc
Protocol: Ligand blockade was confirmed using this assay in conjunction with canine PD-L1/h Fec protein as follows: [0233] 1. Seed cPD-1 CHO cells in 96-well plates and grow the cells to 95-100% confluent. [0234] General guidelines for plating CHO cells, [0235] on day −3: […] (1×10⁵c/mL) [0236] −2: 2×10⁴ c/well ([…]) [0237] −1: 4×10⁴ c/well (4×10⁵ c/mL) [0238] 2. 3-fold dilute anti-cPDL1 mAbs in CHO media, starting at 30 μg/mL, 100 μL/well. Add cPD-L1-hFc to 4 μg/ml in CHO media, 100 μL/well, co-incubate in a dilution plate at 37° C., 5% CO₂ with shaking for 60 min. [0239] 3. Aspirate cell culture media from the cell coated plates, wash the plates 3×PBS+0.05% Tween20 and 1×CHO media. [0240] 4. Add the co-incubated cPD-L1 mAbs/PD-L1 Fc from the dilution plate to the cell coated plate. 100 uL/well. Incubate at 37° C., 5% CO₂ with shaking for 60 min. [0241] 5. Wash the plates 6×PBS+0.05% Tween 20 (using manual wash protocol). [0242] 6. Add Anti-Human Fc-HRP (Calbiochem) (1:2500) in CHO media, 100 ul/well, incubate 30-60 min at 37° C./5% CO₂. [0243] 7. Wash the plates 5×PBS+0.05% Tween20 (using manual wash protocol). [0244] 8. Add 100 μl/well TMB mircowell substrate. Incubate at room temp for 10 minutes. Use one step substrate from Pierce. [0245] 9. Stop with 100 μl/well 1.5M Phosphoric acid. [0246] 10. Measure A450-A620 on the ELISA reader.

[2] = molecular target: T1, canine PD-L1 extracellular domain-human …; test: ELISA, plate coated with canine PD-L1-hFc, two-fold dilutions of mAb, detection with HRP goat anti-mouse IgG, OD 650/490
Protocol: Hybridoma cells in the cell chamber were expanded to approximately 2.5×10⁷ cells/mL over 3-7 days. Then, 10 mL of cell suspension was harvested from the cell chamber and replaced with fresh media to allow for re-expansion of cells and subsequent harvests. This procedure was repeated as necessary to obtain adequate amounts of mAb from each hybridoma clone. Harvested cell suspensions were centrifuged and the supernatants were filtered through 0.2 micron filter membranes. For antibody purification, each clone's supernatant was purified using a Protein G Sepharose 4 Fast flow 5 mL column (GE Healthcare) by gravity flow. After washing with Tris-EDTA (TE) buffer pH 8.0, bound antibodies were eluted using 0.1 M glycine buffer, pH 2.7, followed by pH neutralization using 1 M Tris, pH 8.0. Antibodies were concentrated and buffer exchanged into phosphate-buffered saline (PBS) using Centriprep YM-10.10 kDa NMWL centrifugal filter units (Millipore). Antibody concentrations were quantified using spectrophotometry. […] The color reaction is allowed to develop for 5-20 minutes at 37° C. prior to measuring absorbance at 650 nm.

T1 sequence (chain, as listed by the source limits assumed): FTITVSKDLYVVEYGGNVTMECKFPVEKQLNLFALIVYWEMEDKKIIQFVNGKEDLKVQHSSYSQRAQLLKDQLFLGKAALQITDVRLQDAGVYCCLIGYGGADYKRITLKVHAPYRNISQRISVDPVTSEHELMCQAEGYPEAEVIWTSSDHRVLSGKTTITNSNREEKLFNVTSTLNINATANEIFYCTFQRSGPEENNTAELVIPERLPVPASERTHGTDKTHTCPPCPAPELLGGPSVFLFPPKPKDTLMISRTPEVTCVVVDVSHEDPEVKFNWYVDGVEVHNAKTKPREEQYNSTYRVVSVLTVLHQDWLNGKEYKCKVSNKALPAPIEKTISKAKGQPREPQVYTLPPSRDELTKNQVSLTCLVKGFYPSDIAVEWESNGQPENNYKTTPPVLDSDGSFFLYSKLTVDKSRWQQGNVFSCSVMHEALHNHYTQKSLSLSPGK

| Binder | IC50 (read off the curve) [1] [nM] | binding result [2] |
| --- | --- | --- |
| B1 | ~20 |  |
| B2 |  | binds |
